Assay results reported in PMC9482650, “Quantitative fragmentomics allow affinity mapping of interactomes” (Nature Communications, 2022).
Blank lines part the entries; values can stand above or below the binder they belong to.

Assays:
Assay in all cases: holdup assay
Parameters in all cases: key: below the threshold = too weak to quantify, mostly under pKd 3.1 to 4
[1] = target: SCRIB_1, Q14160
[2] = target: T1, APBA2_1, Q99767
T1 sequence (Q99767 563-664, limits assumed, looked up): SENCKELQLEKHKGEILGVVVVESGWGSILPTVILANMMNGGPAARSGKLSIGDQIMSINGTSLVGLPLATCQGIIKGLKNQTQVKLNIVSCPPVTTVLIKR

[3] = target: FRMPD2_1, Q68DX3
[4] = target: LDB3, O75112
[5] = target: T2, PARD3B_1, Q8TEW8
T2 sequence (Q8TEW8 196-299, limits assumed, looked up): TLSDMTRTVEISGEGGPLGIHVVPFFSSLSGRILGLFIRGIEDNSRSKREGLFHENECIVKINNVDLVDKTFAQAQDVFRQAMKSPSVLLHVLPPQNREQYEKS

[6] = target: TJP1_3, Q07157
[7] = target: Inadl_10, Q8NI35
[8] = target: DLG1_3, Q12959
[9] = target: T3, SNTB1, Q13884
T3 sequence (Q13884 107-205, limits assumed, looked up): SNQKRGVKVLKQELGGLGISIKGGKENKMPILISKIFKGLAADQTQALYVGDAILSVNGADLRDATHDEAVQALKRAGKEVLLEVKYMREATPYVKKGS

[10] = target: PARD3_3, Q8TEW0
[11] = target: GRASP, Q7Z6J2
[12] = target: DLG1_1, Q12959
[13] = target: T4, CARD11, Q9BXL7
T4 sequence (Q9BXL7 662-765, limits assumed, looked up): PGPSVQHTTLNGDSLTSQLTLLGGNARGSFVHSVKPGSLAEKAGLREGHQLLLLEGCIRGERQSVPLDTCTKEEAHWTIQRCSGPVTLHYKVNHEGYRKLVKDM

[14] = target: T5, FRMPD1, Q5SYB0
T5 sequence (Q5SYB0 52-145, limits assumed, looked up): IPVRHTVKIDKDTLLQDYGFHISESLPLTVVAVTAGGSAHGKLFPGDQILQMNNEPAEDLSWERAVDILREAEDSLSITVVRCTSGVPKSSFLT

[15] = target: T6, HTRA4, P83105
T6 sequence (P83105 378-476, limits assumed, looked up): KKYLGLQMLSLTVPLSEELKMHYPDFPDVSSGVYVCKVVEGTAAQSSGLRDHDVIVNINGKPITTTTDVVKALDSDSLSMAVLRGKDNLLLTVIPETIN

[16] = target: T7, LIN7A, O14910
T7 sequence (O14910 103-200, limits assumed, looked up): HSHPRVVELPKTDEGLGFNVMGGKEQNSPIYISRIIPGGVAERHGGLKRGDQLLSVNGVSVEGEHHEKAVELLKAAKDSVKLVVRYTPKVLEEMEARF

[17] = target: T8, LNX2_3, Q8N448
T8 sequence (Q8N448 463-564, limits assumed, looked up): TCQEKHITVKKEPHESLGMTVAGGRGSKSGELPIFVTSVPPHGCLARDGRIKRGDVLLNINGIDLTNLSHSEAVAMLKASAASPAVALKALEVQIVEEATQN

[18] = target: T9, PDZD2_2, O15018
T9 sequence (O15018 329-429, limits assumed, looked up): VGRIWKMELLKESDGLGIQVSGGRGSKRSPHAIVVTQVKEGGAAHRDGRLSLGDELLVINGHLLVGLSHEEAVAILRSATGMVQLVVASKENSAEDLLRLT

[19] = target: FRMPD2_3, Q68DX3
[20] = target: T10, NHERF3_4, Q5T2W1
T10 sequence (Q5T2W1 373-468, limits assumed, looked up): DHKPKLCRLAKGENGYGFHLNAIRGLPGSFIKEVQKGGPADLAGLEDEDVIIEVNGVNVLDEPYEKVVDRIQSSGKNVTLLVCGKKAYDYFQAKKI

[21] = target: T11, DLG3_1, Q92796
T11 sequence (Q92796 125-227, limits assumed, looked up): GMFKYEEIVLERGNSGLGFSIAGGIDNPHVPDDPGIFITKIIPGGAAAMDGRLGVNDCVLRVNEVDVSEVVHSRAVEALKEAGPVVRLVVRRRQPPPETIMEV

[22] = target: NOS1, P29475
[23] = target: T12, MPP6, Q9NZW5
T12 sequence (Q9NZW5 125-219, limits assumed, looked up): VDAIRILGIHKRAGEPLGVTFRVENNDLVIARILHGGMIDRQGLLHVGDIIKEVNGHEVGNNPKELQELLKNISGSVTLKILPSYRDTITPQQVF

[24] = target: DLG4_2, P78352
[25] = target: HTRA1, Q92743
[26] = target: Inadl_5, Q8NI35
[27] = plain residues with an end cap or a label only (N-terminal biotin on a linker: ahx)
[28] = plain residues with an end cap or a label only (N-terminal biotin on a linker: ttds)

Chain of DLG4_2, P78352 (P78352 155-259): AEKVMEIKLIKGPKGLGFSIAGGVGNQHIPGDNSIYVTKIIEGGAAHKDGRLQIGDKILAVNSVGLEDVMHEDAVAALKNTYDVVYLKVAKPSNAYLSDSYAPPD
Chain of Inadl_10, Q8NI35 (Q8NI35 1673-1763): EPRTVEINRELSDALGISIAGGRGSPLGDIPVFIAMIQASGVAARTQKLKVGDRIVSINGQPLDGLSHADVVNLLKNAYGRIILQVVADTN
Chain of PARD3_3, Q8TEW0 (Q8TEW0 582-685): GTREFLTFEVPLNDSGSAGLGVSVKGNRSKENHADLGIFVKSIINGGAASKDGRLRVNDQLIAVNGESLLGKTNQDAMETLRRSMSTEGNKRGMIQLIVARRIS
Chain of TJP1_3, Q07157 (Q07157 416-512): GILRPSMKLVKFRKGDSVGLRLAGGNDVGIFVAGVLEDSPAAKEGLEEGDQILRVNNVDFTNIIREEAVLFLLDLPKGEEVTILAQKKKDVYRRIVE
Chain of GRASP, Q7Z6J2 (Q7Z6J2 96-193): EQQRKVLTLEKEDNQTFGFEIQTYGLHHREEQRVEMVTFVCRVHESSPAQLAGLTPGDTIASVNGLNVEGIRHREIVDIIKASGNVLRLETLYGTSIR
Chain of FRMPD2_3, Q68DX3 (Q68DX3 1073-1166): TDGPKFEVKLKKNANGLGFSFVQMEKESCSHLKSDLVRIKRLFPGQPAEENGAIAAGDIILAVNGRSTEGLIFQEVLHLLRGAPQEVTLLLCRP
Chain of LDB3, O75112 (O75112 1-94): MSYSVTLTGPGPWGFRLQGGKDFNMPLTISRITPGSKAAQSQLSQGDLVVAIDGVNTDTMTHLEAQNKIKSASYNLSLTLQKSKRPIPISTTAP
Chain of NOS1, P29475 (P29475 9-101): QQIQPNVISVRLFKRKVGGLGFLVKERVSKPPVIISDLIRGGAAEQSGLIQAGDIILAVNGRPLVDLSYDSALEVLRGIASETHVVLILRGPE
Chain of SCRIB_1, Q14160 (Q14160 718-814): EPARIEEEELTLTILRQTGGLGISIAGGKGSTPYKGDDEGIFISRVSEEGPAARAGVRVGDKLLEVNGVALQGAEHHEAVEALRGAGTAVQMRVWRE
Chain of Inadl_5, Q8NI35 (Q8NI35 673-780): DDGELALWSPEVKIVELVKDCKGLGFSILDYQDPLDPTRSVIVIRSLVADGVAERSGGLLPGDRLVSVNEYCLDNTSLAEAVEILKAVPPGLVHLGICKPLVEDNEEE
Chain of FRMPD2_1, Q68DX3 (Q68DX3 770-861): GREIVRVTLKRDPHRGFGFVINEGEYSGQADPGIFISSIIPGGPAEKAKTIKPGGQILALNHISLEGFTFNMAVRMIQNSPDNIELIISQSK
Chain of HTRA1, Q92743 (Q92743 360-477): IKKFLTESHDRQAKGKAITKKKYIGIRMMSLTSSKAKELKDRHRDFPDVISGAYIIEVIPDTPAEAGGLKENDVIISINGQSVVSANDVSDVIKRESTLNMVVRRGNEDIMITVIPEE

B2: GPR6, P46095 (peptide)
chain: PFRSRSPSEV
pKd [1, 28]: below the threshold | pKd [2, 28]: below the threshold | pKd [3, 28]: below the threshold | pKd [4, 28]: below the threshold | pKd [5, 28]: 3.8 | pKd [6, 28]: below the threshold | pKd [7, 28]: below the threshold | pKd [8, 28]: 3.81 | pKd [9, 28]: below the threshold | pKd [10, 28]: below the threshold | pKd [11, 28]: below the threshold | pKd [12, 28]: below the threshold | pKd [13, 28]: below the threshold | pKd [14, 28]: below the threshold | pKd [15, 28]: below the threshold | pKd [16, 28]: below the threshold | pKd [17, 28]: below the threshold | pKd [18, 28]: 3.8 | pKd [19, 28]: below the threshold | pKd [20, 28]: below the threshold | pKd [21, 28]: below the threshold | pKd [22, 28]: 3.74 | pKd [23, 28]: below the threshold | pKd [24, 28]: 3.75 | pKd [25, 28]: below the threshold | pKd [26, 28]: 4.29

B3: FZD7, O75084 (peptide)
chain: SHSSKGETAV
pKd [1, 28]: 4.11 | pKd [2, 28]: below the threshold | pKd [3, 28]: 3.8 | pKd [4, 28]: below the threshold | pKd [5, 28]: 3.52 | pKd [6, 28]: below the threshold | pKd [7, 28]: below the threshold | pKd [8, 28]: 4.01 | pKd [9, 28]: 4.49 | pKd [10, 28]: below the threshold | pKd [11, 28]: 3.45 | pKd [12, 28]: 4.72 | pKd [13, 28]: 3.67 | pKd [14, 28]: 3.6 | pKd [15, 28]: below the threshold | pKd [16, 28]: below the threshold | pKd [17, 28]: below the threshold | pKd [18, 28]: 4.09 | pKd [19, 28]: 3.46 | pKd [20, 28]: below the threshold | pKd [21, 28]: 4.01 | pKd [22, 28]: 4.41 | pKd [23, 28]: below the threshold | pKd [24, 28]: 4.69 | pKd [25, 28]: below the threshold | pKd [26, 28]: below the threshold

Further lines, results first:

pKd [1, 27]: 3.62 | pKd [2, 27]: below the threshold | pKd [3, 27]: 3.54 | pKd [4, 27]: below the threshold | pKd [5, 27]: below the threshold | pKd [6, 27]: below the threshold | pKd [7, 27]: 3.7 | pKd [8, 27]: 3.83 | pKd [9, 27]: 3.72 | pKd [10, 27]: below the threshold | pKd [11, 27]: 4.15 | pKd [12, 27]: 3.81 | pKd [13, 27]: below the threshold | pKd [14, 27]: below the threshold | pKd [15, 27]: 4.2 | pKd [16, 27]: below the threshold | pKd [17, 27]: below the threshold | pKd [18, 27]: 3.55 | pKd [19, 27]: below the threshold | pKd [20, 27]: 3.63 | pKd [21, 27]: below the threshold | pKd [22, 27]: below the threshold | pKd [23, 27]: below the threshold | pKd [24, 27]: 4.15 | pKd [25, 27]: 4.3 | pKd [26, 27]: below the threshold
B1: PDZRN3, Q9UPQ7 (peptide)
chain: YNSFLSVTTV

pKd [1, 28]: 3.9 | pKd [2, 28]: below the threshold | pKd [3, 28]: below the threshold | pKd [4, 28]: below the threshold | pKd [5, 28]: below the threshold | pKd [6, 28]: below the threshold | pKd [7, 28]: below the threshold | pKd [8, 28]: 4.2 | pKd [9, 28]: 4.14 | pKd [10, 28]: below the threshold | pKd [11, 28]: 3.51 | pKd [12, 28]: 4.88 | pKd [13, 28]: below the threshold | pKd [14, 28]: below the threshold | pKd [15, 28]: 3.46 | pKd [16, 28]: 3.65 | pKd [17, 28]: below the threshold | pKd [18, 28]: 3.65 | pKd [19, 28]: below the threshold | pKd [20, 28]: below the threshold | pKd [21, 28]: 4.52 | pKd [22, 28]: 3.58 | pKd [23, 28]: below the threshold | pKd [24, 28]: 5.48 | pKd [25, 28]: 3.75 | pKd [26, 28]: below the threshold
B4: RASSF6, Q6ZTQ3 (peptide)
chain: KLVIKTETTV

pKd [1, 27]: 4.31 | pKd [2, 27]: below the threshold | pKd [3, 27]: below the threshold | pKd [4, 27]: below the threshold | pKd [5, 27]: below the threshold | pKd [6, 27]: below the threshold | pKd [7, 27]: below the threshold | pKd [8, 27]: below the threshold | pKd [9, 27]: below the threshold | pKd [10, 27]: below the threshold | pKd [11, 27]: 3.88 | pKd [12, 27]: below the threshold | pKd [13, 27]: below the threshold | pKd [14, 27]: below the threshold | pKd [15, 27]: below the threshold | pKd [16, 27]: below the threshold | pKd [17, 27]: below the threshold | pKd [18, 27]: below the threshold | pKd [19, 27]: below the threshold | pKd [20, 27]: below the threshold | pKd [21, 27]: below the threshold | pKd [22, 27]: below the threshold | pKd [23, 27]: below the threshold | pKd [24, 27]: below the threshold | pKd [25, 27]: below the threshold | pKd [26, 27]: below the threshold
B5: SHKBP1, Q8TBC3 (peptide)
chain: PKMKLNETSF
